± gives the uncertainty stated by the source.

The text below walks through data of the supplement of paper PMC12042874.

This series is described as follows: amyloid nucleation score (Sup35N fusion, yeast selection) (log enrichment); library NNK3; higher = more nucleation; inactive = no reads after selection. The method in brief: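 In psi-negative yeast, Sup35N fusions carrying peptides of 20 random codons were induced with 100 μM copper sulfate for 24 hours. The cells then grew 7 days at 30°C on medium lacking adenine and uracil, and plasmid inserts from input and output were Illumina-sequenced, excluding sequences with under 100 input reads. Nucleation score is the DiMSum log enrichment of output over input reads, centred on the mode score of non-aggregating sequences.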
As to LNKLEVNDVSIGYVNCTLFK, the amyloid nucleation score entry is “inactive”.
For the substance LNLQPRVDVVLVLFRTRANK, the amyloid nucleation score worked out at 0.767 ± 0.25.
With LNLYRLPLTPSLSASRMIAY, the amyloid nucleation score result was “inactive”.
With LNNFMWKHVMGYPYVAWLAF, the amyloid nucleation score entry is “inactive”.
Regarding LNNRA, the amyloid nucleation score result is “inactive”.
For the substance LNNTQFL, the amyloid nucleation score entry is “inactive”.
For the substance LNQGSYYGMARFPL, the amyloid nucleation score entry was “inactive”.
Regarding LNQVSLLVGNMRWDCDIKSA, the amyloid nucleation score entry is “inactive”.
Under LNSSVYVLLRSILPSVWNQL stands “inactive”.
Under LNVMFSFRYPWFSVFVLMIV stands “inactive”.
The same measure for LNVRAVFIVTRISVSYSRAR: 0.081 ± 0.52.
As for LNYVVTHLYLVLFHVMVSDG, the amyloid nucleation score entry was “inactive”.
LPCWKFGLASHR: the amyloid nucleation score entry was “inactive”.
Under LPDEEHVRYVCYLYDM stands “inactive”; under LPEMGFFSLVDNWLAVAFSK, 1.46 ± 0.081.
On to LPGNLYFYVTGTCDNYLTVW, for which the amyloid nucleation score result is “inactive”.
As for LPHNIVLAKKTLKV, the amyloid nucleation score entry is “inactive”.
In the case of LPIQVSFVMVRWGSMFMFRN, the amyloid nucleation score result was “inactive”.
LPPFCGSGCLSGLLRSKTRR came in with an amyloid nucleation score of 0.617 ± 0.19.
Under LPRLYDFLGLVWVIA stands “inactive”.
Consider LPTSFTSFNLKSLASMT, for which the amyloid nucleation score entry is “inactive”.
Take LPYLKQ: the amyloid nucleation score result is “inactive”.
For the substance LPYTVQAVVIRVDKSYVSSV, the amyloid nucleation score result was “inactive”.
Consider LQCLNQVRSRLVVLLLIFNV, for which the amyloid nucleation score entry was “inactive”.
Turning to LQEGSN, the amyloid nucleation score entry was “inactive”.
On to LQFNISYRMFSEVCVFLLVW, for which the amyloid nucleation score result is “inactive”.
Consider LQLRSLF, for which the amyloid nucleation score entry is “inactive”.
With LQQCFYMVNFFMLSSLAVLL, the amyloid nucleation score result is “inactive”.
The same measure for LQSFPYQYIITR: “inactive”; for LQSNFRSPTISGFTTEKVGK: “inactive”; for LQSSMSIYSQFWSVDSLFYE: 0.04 ± 0.66.
Consider LQVVNLSR, for which the amyloid nucleation score entry is “inactive”.
As for LQWVRLVSRVQSTDCNLGAG, the amyloid nucleation score result was “inactive”.
For the substance LQYFTYLGQCLKRETHHFLR, the amyloid nucleation score result is “inactive”.
As for LRASFWECLCCCVVR, the amyloid nucleation score was determined as 2.33 ± 0.073.
On to LRFNVDAMFSTSVVRIQKCL, for which the amyloid nucleation score entry is “inactive”.
As for LRGMDYVCDEPLYVTLWVNR, the amyloid nucleation score result was “inactive”.
As to LRIERQSAFSCILDM, the amyloid nucleation score result is “inactive”.
Under LRLTIMSGIRVPVFYEHSFM stands -0.443 ± 0.96.
LRMGVNILLAMGCFSAYPGE yielded an amyloid nucleation score of 0.171 ± 0.39.
Consider LRMHWDTYERSVDTIASVVH, for which the amyloid nucleation score entry is “inactive”.
As to LRMVTHMSVYDRNHLSW, the amyloid nucleation score entry is “inactive”.
As for LRRGMMARFIVNVVRVN, the amyloid nucleation score entry is “inactive”.
With LRRTIYFTDDRCLWLDFAPL, the amyloid nucleation score was found to be 0.272 ± 0.43.
Consider LRSSYQNLDPSVCQQFHLGE, for which the amyloid nucleation score was -0.075 ± 0.66.
As to LRVPSPYIFYKSKGHNIGSL, the amyloid nucleation score result is “inactive”.
For LSAADSMCGKRCLRGTP, the amyloid nucleation score result was “inactive”.
LSCHTKETFPDDG: the amyloid nucleation score entry was “inactive”.
On to LSCMNRTQCHASFSLPL, for which the amyloid nucleation score result is “inactive”.
As to LSCPLVYSTSSFIK, the amyloid nucleation score result was “inactive”.
The same measure for LSCVLTVGTKTLFRAQMTQV: “inactive”; for LSCYRVFSYCT: “inactive”; for LSDLEDWRNYRWSKEDLKVE: “inactive”.
As to LSDYLGYDG, the amyloid nucleation score result was “inactive”.
On to LSFCVVSTGRCAAMEN, for which the amyloid nucleation score result is “inactive”.
Under LSFVCTEETHGTNDSAGYNF stands “inactive”; under LSFYTFGNNWTKRCNCPTAS, “inactive”.
For LSGKTMVFFPKSNMRNNTRS, the amyloid nucleation score entry was “inactive”.
Take LSGLESVRSSYDWVVGGWIS: the amyloid nucleation score is -0.329 ± 1.3.
Turning to LSGNCKYRTLWFIGPYSHFC, the amyloid nucleation score result is “inactive”.
The same measure for LSHAG: “inactive”.
As to LSIVQD, the amyloid nucleation score was -0.413 ± 1.1.
Consider LSIVRAGVRSGNRGELFRCR, for which the amyloid nucleation score entry is “inactive”.
LSLFVGGAEGWVKGDPASEG: the amyloid nucleation score stood at 0.507 ± 0.25.
Consider LSLLVTLG, for which the amyloid nucleation score result was “inactive”.
Under LSLRCEFSSASSGCTSGQRR stands “inactive”; under LSLWRWSVHS, “inactive”; under LSMFTFCRYPGCQRLDRKPY, 1.23 ± 0.1.
LSMPMAAGCFKHMPCAA displayed an amyloid nucleation score of -0.643 ± 1.7.
Turning to LSPPLVSWGGPTVRMGKCSG, the amyloid nucleation score entry was “inactive”.
As for LSRCVPNDVGKAYMMKEKRK, the amyloid nucleation score entry is “inactive”.
In the case of LSRFD, the amyloid nucleation score result is “inactive”.
LSRYSRSTIILEHWCDTDWY displayed an amyloid nucleation score of 0.812 ± 0.24.
In the case of LSSFIFCFSLYAVLTMGVVH, the amyloid nucleation score entry is “inactive”.
Consider LSSFRPSYEYYLRDISAMSW, for which the amyloid nucleation score entry is “inactive”.
For the substance LSSIWKGLRGLFIFFWHIKK, the amyloid nucleation score result is “inactive”.
For the substance LSSWFHFLSNTATRQKVWRS, the amyloid nucleation score entry is “inactive”.
LSVANQNCVKLDIVHM: the amyloid nucleation score result is “inactive”.
Under LSVDRL stands -0.632 ± 0.9.
Turning to LSVSIGVVGF, the amyloid nucleation score entry is “inactive”.
As for LSWRRCA, the amyloid nucleation score entry was “inactive”.
LSWRTPISAMFDSWACGGGR: the amyloid nucleation score result was “inactive”.
In the case of LSYCKRHIRRRLFVG, the amyloid nucleation score was -0.208 ± 0.6.
In the case of LTDDSCCPRR, the amyloid nucleation score entry is “inactive”.
The same measure for LTDRDDDSTHVRSPYSRLLW: “inactive”.
For the substance LTFIMLCIS, the amyloid nucleation score worked out at 1.24 ± 0.12.
As for LTICFVSYVTVGDAGTMTPR, the amyloid nucleation score turned out to be 1.62 ± 0.099.
The substance LTKYVVFSIY gave an amyloid nucleation score of 1.16 ± 0.094.
Turning to LTLLHRKRMVLRYCNFMLYL, the amyloid nucleation score result was “inactive”.
Consider LTQLTIIKTGLTCLMA, for which the amyloid nucleation score entry is “inactive”.
Under LTRRSRLWHMSSYTWKKDVI stands 0.084 ± 0.5.
The same measure for LTSCTATLCICCSRVVTVEI: 1.24 ± 0.082.
In the case of LTSLSKSFCNNVHAYSDFLH, the amyloid nucleation score entry is “inactive”.
The same measure for LTVCV: “inactive”.
Under LVCGPI stands “inactive”.
In the case of LVCMEISSNFLATVCVEWIG, the amyloid nucleation score result was “inactive”.
LVCSLLQASNWCVISSS registered an amyloid nucleation score of 0.753 ± 0.11.
Consider LVDLRTVSYTLSQKMKFGGS, for which the amyloid nucleation score result is “inactive”.
